Laboratory results: article PMC12457637, “An aptamer-drug conjugate for promising cancer therapy with comprehensive evaluation from rodents to non-human primates” (Signal Transduction and Targeted Therapy, 2025)
Where two headings read alike, the source gives them in different places. Non-standard residues stand in square brackets, D forms with d. Residues, ends and D or L forms follow the SMILES beside them. *: point of attachment. Dolaproine = CO[C@@H]([C@@H]1CCCN1)[C@@H](C)C(=O)O; Dil = CC[C@H](C)[C@H](NC)[C@@H](CC(=O)O)OC; X1 = C[C@@H](N*)[C@@H](O)c1ccccc1; NMeV = CN[C@H](C(=O)O)C(C)C

How the values were obtained:
MDA-MB-468 xenograft = assay: Antitumor efficacy, MDA-MB-468 xenograft; assay type: in vivo, mice; conditions: free MMAE at equivalent dose (0.359 mg/kg i.v.)
Procedure: (§1) In vivo therapeutic evaluations were performed to evaluate the antitumor effects of the PTK7-targeted ApDC Sgc8c-M with comparisons made between the chemotherapeutic drug paclitaxel and the ApDC’s toxic payload MMAE in most cases. […] All tumor models were established on female BALB/c nude mice. Briefly, a 50 μL suspension of tumor cells (SUM159: 5 × 10^6, MDA-MB-468: 1 × 10^7, MIA PaCa-2: 5 × 10^6, OVCAR3: 5 × 10^6, HT-29: 5 × 10^6, NCI-H1975: 5 × 10^6, A549: 5 × 10^6) mixed with an equal volume of Matrigel (BD) was injected s.c. into the right hind flank region of mice. For the TNBC PDX and pancreatic cancer PDX F4 and F5 models, 3–5 mm^3 of tumor fragments were implanted into the right hind flank region of mice. When tumor sizes reached approximately 100 mm^3–300 mm^3, the mice were randomly divided into control and treatment groups. Sgc8c-M (i.v.), paclitaxel (i.p.), MMAE (i.v.), or ADC h6M24-VcMMAE (i.v.) were administered to tumor-bearing mice respectively, and tumor volume and body weight were measured every 2 to 4 days following the initiation of treatment. […] Tumor volume was calculated according to the following equation: Tumor volume = (tumor length × tumor width^2)/2. TGI (%) was calculated as follows: TGI (%) = [1 – (mean of tumor volume in the treatment group)/(mean of tumor volume in the saline group)] × 100.

[1] = parameters: method as in PMID 31877330; conditions: cited from earlier work
MIA PaCa-2 cells = assay: 72-h cytotoxicity (MTS), MIA PaCa-2; assay type: cell-based
Procedure: Cells were seeded in wells of a 96-well plate (6000 cells/well) and incubated overnight to allow for cell adherence. On the second day, 100 μL complete medium containing VcMMAE and Sgc8c-M (400, 200, 100, 50, 25, 12.5, and 6.25 nM), as well as MMAE (5, 2.5, 1.25, 0.625, 0.3125, 0.15625, and 0.078125 nM), were added to wells of a 96-well plate for an additional 72-h incubation at 37 °C. At the end of incubation, 100 μL of CellTiter 96® Aqueous One Solution Cell Proliferation Assay (MTS, Promega) solution (prepared by mixing 2 mL MTS with 9 mL of complete medium) were added to each well. The plates were then incubated for an additional 1–2 h to allow for the formation of formazan crystals. The absorbance of each well was measured at 490 nm using a Multi-Mode Microplate Reader (TECAN, SPARK) to assess cell viability. Cell viability was calculated as [OD490 (treatment) - OD490 (blank)]/[OD490 (nontreatment) - OD490 (blank)] × 100%.

TNBC PDX = assay: Antitumor efficacy, TNBC PDX; assay type: in vivo, mice; conditions: 10 mg/kg i.p.
Procedure: as §1

SUM159 xenograft = assay: Antitumor efficacy, SUM159 xenograft; assay type: in vivo, mice; conditions: 10 mg/kg i.p., Fig. 2c
Procedure: as §1

human PTK7 = biological target: T1, human PTK7 (Homo sapiens, UniProt Q13308); assay: SPR binding to recombinant human PTK7
T1 construct: His; purchased Sino Biological 19399-H08H
T1 sequence (Q13308 31-704 limits assumed): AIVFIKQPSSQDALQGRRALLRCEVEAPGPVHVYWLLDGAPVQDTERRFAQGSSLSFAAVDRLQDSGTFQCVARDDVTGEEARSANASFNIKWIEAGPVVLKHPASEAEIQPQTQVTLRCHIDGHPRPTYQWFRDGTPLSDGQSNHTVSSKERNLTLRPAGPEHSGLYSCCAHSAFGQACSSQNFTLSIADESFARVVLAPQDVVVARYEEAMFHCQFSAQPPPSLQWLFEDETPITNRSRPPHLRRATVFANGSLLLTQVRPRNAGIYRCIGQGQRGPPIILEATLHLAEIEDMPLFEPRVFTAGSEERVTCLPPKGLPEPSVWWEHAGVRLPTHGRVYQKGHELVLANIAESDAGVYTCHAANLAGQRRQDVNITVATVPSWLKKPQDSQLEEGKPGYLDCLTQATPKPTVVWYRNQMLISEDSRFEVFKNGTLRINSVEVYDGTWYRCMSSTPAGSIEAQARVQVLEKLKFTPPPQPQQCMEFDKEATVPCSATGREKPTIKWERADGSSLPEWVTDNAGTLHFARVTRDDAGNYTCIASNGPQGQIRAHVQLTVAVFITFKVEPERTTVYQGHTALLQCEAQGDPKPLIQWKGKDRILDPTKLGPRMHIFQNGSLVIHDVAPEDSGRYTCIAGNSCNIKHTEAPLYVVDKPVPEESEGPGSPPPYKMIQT
Excerpt: For SPR analysis, human (#19399-H08H, Sino Biological), mouse (HY-P78761, MCE), rat (HY-P78619, MCE), and cynomolgus monkey (#90979-C08H, Sino Biological) PTK7 proteins with His tags were immobilized on a carboxymethylated dextran CM5 chip on SPR (Cytiva Biacore 8 K). Sodium acetate buffer (NaAC) at pH 5.0/5.5 was used for human and cynomolgus monkey PTK7 proteins, while a pH of 4.5 was applied for mouse and rat PTK7 proteins. His protein was simultaneously immobilized on the CM5 chip as a control using pH 4.5 NaAC. The final concentration of all above proteins was 10 μg/mL. Unreacted carboxyl groups were subsequently deactivated using ethanolamine-HCl. Sgc8c were diluted to 25, 50, 100, 200, and 400 nM in running buffer (DPBS supplemented with 5 mM MgCl2), and Sgc8c-M and Ctrl-M were diluted to 400 nM. Sgc8c, Sgc8c-M, and Ctrl-M were sequentially injected over the immobilized surface from low to high concentrations for a 180-s association phase followed by a 180-s dissociation phase at a flow rate of 10 µL/min. The capture surface was regenerated after each cycle with a 30-s contact time of 1.5 M NaCl at a flow rate of 30 µL/min. The equilibrium dissociation constant (Kd) was subsequently analyzed by Biacore Insight Evaluation software.

PTK7 [2] = biological target: T2, PTK7 (human, UniProt Q13308 31-704); assay: SPR; 5 mM Mg2+; 400 nM; SPR (Biacore 8K, CM5): DPBS + 5 mM MgCl2, 10 uL/min, 180 s association and dissociation; temperature and pH of running buffer not stated; conditions: protein: commercial; tags: His
T2 sequence: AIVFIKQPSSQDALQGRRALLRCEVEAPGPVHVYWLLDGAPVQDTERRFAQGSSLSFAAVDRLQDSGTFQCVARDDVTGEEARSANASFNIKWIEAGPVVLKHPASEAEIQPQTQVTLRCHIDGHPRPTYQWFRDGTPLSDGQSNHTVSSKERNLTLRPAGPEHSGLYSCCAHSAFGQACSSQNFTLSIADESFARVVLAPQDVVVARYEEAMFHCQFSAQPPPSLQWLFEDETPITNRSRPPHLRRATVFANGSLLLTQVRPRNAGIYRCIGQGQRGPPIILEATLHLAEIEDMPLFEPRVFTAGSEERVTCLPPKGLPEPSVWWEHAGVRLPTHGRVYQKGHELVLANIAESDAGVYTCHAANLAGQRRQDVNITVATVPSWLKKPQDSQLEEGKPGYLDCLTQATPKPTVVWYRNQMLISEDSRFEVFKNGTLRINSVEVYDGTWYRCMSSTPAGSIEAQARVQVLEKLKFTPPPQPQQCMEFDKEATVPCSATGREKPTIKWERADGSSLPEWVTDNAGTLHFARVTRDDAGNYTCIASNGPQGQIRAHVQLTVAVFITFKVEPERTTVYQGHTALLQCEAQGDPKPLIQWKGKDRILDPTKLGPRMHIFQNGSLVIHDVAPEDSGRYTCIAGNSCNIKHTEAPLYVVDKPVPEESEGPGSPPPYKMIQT

PTK7 [3] = biological target: T2, PTK7; assay: SPR; 5 mM Mg2+; Kd only in figure; SPR (Biacore 8K, CM5): DPBS + 5 mM MgCl2, 10 uL/min, 180 s association and dissociation; temperature and pH of running buffer not stated; conditions: protein: commercial; tags: His
PTK7 [4] = biological target: T3, PTK7 (mouse, UniProt Q8BKG3 23-696); assay: as above; conditions: protein: commercial; tags: His
T3 sequence: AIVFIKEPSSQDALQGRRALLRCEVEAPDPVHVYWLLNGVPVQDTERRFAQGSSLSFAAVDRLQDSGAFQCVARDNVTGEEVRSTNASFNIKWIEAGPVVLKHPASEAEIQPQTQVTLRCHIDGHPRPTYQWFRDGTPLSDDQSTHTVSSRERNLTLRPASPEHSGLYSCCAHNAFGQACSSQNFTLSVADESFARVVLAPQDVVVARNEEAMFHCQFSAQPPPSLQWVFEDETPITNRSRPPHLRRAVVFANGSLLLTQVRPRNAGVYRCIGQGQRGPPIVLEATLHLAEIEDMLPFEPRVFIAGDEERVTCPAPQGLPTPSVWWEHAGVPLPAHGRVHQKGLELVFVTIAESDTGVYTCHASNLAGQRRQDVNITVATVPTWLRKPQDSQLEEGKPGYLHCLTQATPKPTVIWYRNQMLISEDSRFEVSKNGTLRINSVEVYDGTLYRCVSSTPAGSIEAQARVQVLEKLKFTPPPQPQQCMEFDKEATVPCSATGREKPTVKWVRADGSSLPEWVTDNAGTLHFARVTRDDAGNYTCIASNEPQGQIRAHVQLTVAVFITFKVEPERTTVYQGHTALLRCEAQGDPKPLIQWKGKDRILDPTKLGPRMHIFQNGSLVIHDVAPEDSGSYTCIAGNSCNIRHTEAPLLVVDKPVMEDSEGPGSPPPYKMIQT

PTK7 [5] = biological target: T4, PTK7 (rat, UniProt A0A8I6AKN3 23-696); assay: as above; conditions: protein: commercial; tags: His
PTK7 [6] = biological target: T2, PTK7; assay: SPR; 5 mM Mg2+; 400 nM; Kd only in figure; SPR (Biacore 8K, CM5): DPBS + 5 mM MgCl2, 10 uL/min, 180 s association and dissociation; temperature and pH of running buffer not stated; conditions: protein: commercial; tags: His
PTK7 [7] = biological target: T3, PTK7; assay: as above; conditions: protein: commercial; tags: His
PTK7 [8] = biological target: T4, PTK7; assay: as above; conditions: protein: commercial; tags: His

CC[C@H](C)[C@@H]([C@@H](CC(=O)N1CCC[C@H]1[C@H](OC)[C@@H](C)C(=O)N[C@H](C)[C@@H](O)c1ccccc1)OC)N(C)C(=O)[C@@H](NC(=O)[C@@H](NC)C(C)C)C(C)C [MMAE, monomethyl auristatin E] (H-[NMeV]V[Dil][Dolaproine]-X1)
TGI (MDA-MB-468 xenograft): 76%
mortality ([1]; single administration of 0.16 mg/kg): 100%
IC50 lower than that of Sgc8c-M (MIA PaCa-2 cells; MIA PaCa-2): approximately 48 fold
IC50 (MIA PaCa-2 cells; MIA PaCa-2, 72-h incubation): 0.389 nM

CC(=O)O[C@H]1C(=O)[C@@]2(C)[C@H]([C@H](OC(=O)c3ccccc3)[C@]3(O)C[C@H](OC(=O)[C@H](O)[C@@H](NC(=O)c4ccccc4)c4ccccc4)C(C)=C1C3(C)C)[C@]1(OC(C)=O)CO[C@@H]1C[C@@H]2O [paclitaxel]
tumor growth compared to saline controls (TNBC PDX): failed to significantly inhibit tumor growth
tumor growth relative to saline controls (SUM159 xenograft): partially reduced tumor growth

B1: h6M24-VcMMAE: PTK7-targeted ADC (DAR4): antibody of h6M24-vc0101 conjugated with the same MMAE payload (conjugate, chains of the INN, looked up)
VH: QVQLVQSGPEVKKPGASVKVSCKASGYTFTDYAVHWVRQAPGKRLEWIGVISTYNDYTYNNQDFKGRVTMTRDTSASTAYMELSRLRSEDTAVYYCARGNSYFYALDYWGQGTSVTVSS
VL: EIVLTQSPATLSLSPGERATLSCRASESVDSYGKSFMHWYQQKPGQAPRLLIYRASNLESGIPARFSGSGSGTDFTLTISSLEPEDFAVYYCQQSNEDPWTFGGGTKLEIK
modifications: vcMMAE payload, DAR4
Kd (human PTK7): 3.18 nM

AGATTGGCATGTCATAAAAGGGCCGCCGCGTCGTCAATCTA (ssDNA, 3'-C6-S-maleimide MC-VC-PAB-MMAE conjugate) [Ctrl-M]
binding result (PTK7 [2]): no binding

ATCTAACTGCTGCGCCGCCGGGAAAATACTGTACGGTTAGA (structured_DNA) [Sgc8c]
binding result (PTK7 [3]): binds
binding result (PTK7 [4]): binds
binding result (PTK7 [5]): binds

ATCTAACTGCTGCGCCGCCGGGAAAATACTGTACGGTTAGA (structured_DNA, 3'-C6-S-maleimide MC-VC-PAB-MMAE conjugate) [Sgc8c-M]
binding result (PTK7 [6]): binds
binding result (PTK7 [7]): binds
binding result (PTK7 [8]): binds

B2: Disitamab vedotin: clinically approved ADC, anti-HER2 antibody conjugated with MMAE (conjugate, chains of the INN, looked up)
VH: EVQLVQSGAEVKKPGATVKISCKVSGYTFTDYYIHWVQQAPGKGLEWMGRVNPDHGDSYYNQKFKDKATITADKSTDTAYMELSSLRSEDTAVYFCARNYLFDHWGQGTLVTVSS
VL: DIQMTQSPSSVSASVGDRVTITCKASQDVGTAVAWYQQKPGKAPKLLIYWASIRHTGVPSRFSGSGSGTDFTLTISSLQPEDFATYYCHQFATYTFGGGTKVEIK
modifications: MMAE payload
notes: clinically approved ADC, anti-HER2 antibody conjugated with MMAE
mortality ([1]; single injection of 18 mg/kg (approx. 0.35 mg/kg MMAE)): 50%
